Measured values published in paper PMC4437517 (Proteins, 2008).

Assays:
SEC = molecular target: the molecule itself; test: SEC
crystal structure = molecular target: the molecule itself; test: crystal structure

B1: protein product of the Arabidopsis thaliana gene locus At1g05000 (enzyme, UniProt Q9ZVN4 1-215, looked up)
chain: SKLVEKTTTTEQDNGEDFCRTIIEVSEVNRNVFQAPGGEADPFRVVSGEELHLIPPLNFSMVDNGIFRSGFPDSANFSFLQTLGLRSIIYLCPEPYPESNLQFLKSNGIRLFQFGIEGNKEPFVNIPDHKIRMALKVLLDEKNHPVLIHCKRGKHRTGCLVGCLRKLQKWCLTSIFDEYQRFAAAKARVSDQRFMEIFDVSSFSHIPMSFSCSIR
modifications: selenomethionine-labeled
stoichiometry N (SEC): 2
stoichiometry N (crystal structure): 6
